Results: publication PMC1278935, “Different Catalytic Mechanisms in Mammalian Selenocysteine- and Cysteine-Containing Methionine-R-Sulfoxide Reductases” (PLoS Biology, 2005)
Residue numbers refer to the chain shown, from its start. In names and notes the source's numbering stands.

Tests used:
[1] = substrate: CN(C)c1ccc(N=Nc2ccc(S(=O)(=O)N[C@@H](CC[S@@+](C)[O-])C(=O)O)cc2)cc1; assay: HPLC of dabsyl-Met, Lineweaver-Burk; format: biochemical, Homo sapiens; conditions: 20 mM DTT, 50 mM sodium phosphate pH 7.5, 50 mM NaCl, 37 °C, from E. coli
Description: HPLC of dabsyl-Met, Lineweaver-Burk on MsrB3

[2] = substrate: CN(C)c1ccc(N=Nc2ccc(S(=O)(=O)N[C@@H](CC[S@@+](C)[O-])C(=O)O)cc2)cc1; assay: HPLC of dabsyl-Met, Lineweaver-Burk; format: biochemical, Mus musculus; conditions: 20 mM DTT, 50 mM sodium phosphate pH 7.5, 50 mM NaCl, 37 °C
Description: HPLC of dabsyl-Met, Lineweaver-Burk on MsrB1 (Sec-containing MsrB1; Cys form MsrB1-Cys)

B1: MsrB3 (Homo sapiens; H77G) (protein)
chain: SGSCRDKKNCKVVFSQQELRKRLTPLQYHVTQEKGTESAFEGEYTGHKDPGIYKCVVCGTPLFKSETKFDSGSGWPSFHDVINSEAITFTDDFSYGMHRVETSCSQCGAHLGHIFDDGPRPTGKRYCINSAALSFTPADSSGTAEGGSGVASPAQADKAEL
notes: MsrB3A delta(1-31), residues 32-192, endoplasmic reticulum signal removed, C-terminal His tag (LEHHHHHH), E. coli BL21(DE3), monomer
**Q.** For B1, which Km ([1]; MsrB1 numbering) is on record?
**A.** Its Km is 1000 ± 200 µM.

**Q.** What about the kcat ([1]; MsrB1 numbering) of the same protein?
**A.** Its kcat is 0.0283 ± 0.005 s⁻¹.

B2: MsrB3 (Homo sapiens) (protein)
chain: B1 chain with G46H
notes: as for B1
**Q.** How did the Km [1] turn out when B2 was run?
**A.** The Km was 800 ± 50 µM.

**Q.** What about the kcat [1] of the same protein?
**A.** Its kcat is 0.827 ± 0.07 s⁻¹.

B3: MsrB3 (Homo sapiens; I113E) (protein)
chain: B1 chain with G46H, I82E
notes: as for B1
**Q.** How did the Km ([1]; MsrB1 numbering) turn out when B3 was run?
**A.** Its Km is 200 ± 50 µM.

**Q.** What about the kcat ([1]; MsrB1 numbering) of the same protein?
**A.** Its kcat is 0.07 ± 0.0083 s⁻¹.

B4: MsrB3 (Homo sapiens; N160Y) (protein)
chain: B1 chain with G46H, N129Y
notes: as for B1
**Q.** B4 was tested. Which Km ([1]; MsrB1 numbering) did it give?
**A.** The Km was 1200 ± 100 µM.

**Q.** What about the kcat ([1]; MsrB1 numbering) of the same protein?
**A.** Its kcat is 0.00033 ± 0.00017 s⁻¹.

B5: MsrB1 (Sec-containing MsrB1; Cys form MsrB1-Cys) (Mus musculus) (protein)
chain: MSFCSFFGGEVFQNHFEPGVYVCAKCSYELFSSHSKYAHSSPWPAFTETIHPDSVTKCPEKNRPEALKVSCGKCGNGLGHEFLNDGPKRGQSRFUIFSSSLKFVPKGKEAAASQGH
notes: full length, monomer; Sec forms: natural SECIS element, C-terminal His tag (five His added to own C-terminal His), from NIH 3T3 cells; C-terminally tagged form of similar activity also made
**Q.** For B5, which Km ([2]; Sec form from NIH 3T3) is on record?
**A.** Its Km is 500 ± 100 µM.

**Q.** And the kcat ([2]; Sec form from NIH 3T3)?
**A.** The kcat was 0.223 ± 0.0383 s⁻¹.

B6: MsrB1 (Sec-containing MsrB1; Cys form MsrB1-Cys) (Mus musculus; F97N/G77H/U95C) (protein)
chain: B5 chain with G77H, U95C, F97N
notes: as for B5
**Q.** How did the Km ([2]; MsrB1-Cys from E. coli) turn out when B6 was run?
**A.** The Km was 13200 ± 2400 µM.

**Q.** What about the kcat ([2]; MsrB1-Cys from E. coli) of the same protein?
**A.** The kcat was 0.023 ± 0.005 s⁻¹.

B7: MsrB1 (Sec-containing MsrB1; Cys form MsrB1-Cys) (Mus musculus; F97N/G77H) (protein)
chain: B5 chain with G77H, F97N
notes: as for B5
**Q.** With B7 as the protein, how does the Km ([2]; Sec form from NIH 3T3) read?
**A.** The Km was 6400 ± 2100 µM.

**Q.** What about the kcat ([2]; Sec form from NIH 3T3) of the same protein?
**A.** The kcat was 0.04 ± 0.0083 s⁻¹.

B8: MsrB1 (Sec-containing MsrB1; Cys form MsrB1-Cys) (Mus musculus; F97N) (protein)
chain: B5 chain with F97N
notes: as for B5
**Q.** How did the Km ([2]; Sec form from NIH 3T3) turn out when B8 was run?
**A.** Its Km is 4300 ± 1600 µM.

**Q.** And the kcat ([2]; Sec form from NIH 3T3)?
**A.** Its kcat is 0.01 ± 0.0033 s⁻¹.

B9: MsrB1 (Sec-containing MsrB1; Cys form MsrB1-Cys) (Mus musculus; U95C) (protein)
chain: B5 chain with U95C
notes: as for B5
**Q.** How did the Km ([2]; MsrB1-Cys from E. coli) turn out when B9 was run?
**A.** The Km was 1300 ± 200 µM.

**Q.** And the kcat ([2]; MsrB1-Cys from E. coli)?
**A.** Its kcat is 0.00183 ± 0.0005 s⁻¹.

B10: MsrB1 (Sec-containing MsrB1; Cys form MsrB1-Cys) (Mus musculus; G77H) (protein)
chain: B5 chain with G77H
notes: as for B5
**Q.** What does the source list for B10?
**A.** Km ([2]; Sec form from NIH 3T3): 800 ± 50 µM; kcat ([2]; Sec form from NIH 3T3): 0.0433 ± 0.013 s⁻¹
